In PMC5415356:

Target: PATJ (UniProt Q8NI35)
Assay: reciprocal co-IP (Flag or HA), immunoblot
Conditions: reference: wild type HA-Amot-p130; sites S176

For “Amot-p130 (Angiomotin) (from UniProt Q8VHG2) S176A”, the “binding against the reference” value was “lost”.
